Data from publication PMC12800249 (Scientific Reports, 2025).

What was measured:
[1] = molecular target: delta opioid receptor (DOR) (Rattus norvegicus, UniProt P33533); experiment: Intracellular cAMP assay; format: cell-based; conditions: FRSK cells; 10 μM forskolin, 1–1000 nM peptide, 30 min; cAMP-Glo
MOR = conditions: literature statement; cited from earlier work

Sequence of delta opioid receptor (DOR) (P33533 whole entry): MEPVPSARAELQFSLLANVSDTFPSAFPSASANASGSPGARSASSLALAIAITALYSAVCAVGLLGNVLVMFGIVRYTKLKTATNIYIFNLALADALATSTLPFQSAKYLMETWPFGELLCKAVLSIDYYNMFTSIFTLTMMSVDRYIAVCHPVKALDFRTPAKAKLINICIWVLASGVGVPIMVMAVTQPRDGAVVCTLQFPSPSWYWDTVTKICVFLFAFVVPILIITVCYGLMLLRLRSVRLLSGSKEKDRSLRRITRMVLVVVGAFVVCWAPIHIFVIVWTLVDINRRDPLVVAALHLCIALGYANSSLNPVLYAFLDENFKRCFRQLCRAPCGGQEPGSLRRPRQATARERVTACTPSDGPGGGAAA

For β-endorphin, the “effect on forskolin-induced intracellular cAMP” value [1] is given as “attenuated this forskolin-induced increase in cAMP concentration in a dose-dependent manner” and the “receptor preference (MOR)” value (MOR) is given as “primary ligand for MOR”.
